Source: article PMC6853952, “MUC4-ErbB2 Oncogenic Complex: Binding studies using Microscale Thermophoresis” (Scientific Reports, 2019)
Blank lines part the entries; values can stand above or below the molecule they belong to.

Columns and labels:
[1] = biological target: eGFP-MUC4β fusion protein (transmembrane β subunit of MUC4) (human) (UniProt Q99102); assay: MST; normal model: eGFP fusion in CHO-K1 lysate kept constant, ErbB2-Fc titrated, label-free; lysis buffer MPer, dilution in MST buffer; 23 °C
[2] = biological target: eGFP-MUC4β fusion protein (transmembrane β subunit of MUC4) (human) (UniProt Q99102); assay: MST; normal model: eGFP fusion in CHO-K1 lysate kept constant, ErbB2-Fc titrated, label-free; lysis buffer RIPA, dilution in PBS; 23 °C
[3] = biological target: eGFP-MUC4β fusion protein (transmembrane β subunit of MUC4) (human) (UniProt Q99102); assay: MST; normal model, optimised conditions: MPer lysate with the eGFP fusion kept constant around 33 nM, Fc protein titrated 1:1 in PBS with 0.05% P20 from 1 µM to 0.05 nM; 80% MST power, MST-on 30 s; blue LED
[4] = biological target: eGFP-MUC4β fusion protein (transmembrane β subunit of MUC4) (human) (UniProt Q99102); assay: MST; normal model: eGFP fusion in CHO-K1 lysate kept constant, ErbB2-Fc titrated, label-free; lysis buffer RIPA, dilution in Tris-based MST buffer; 23 °C
[5] = biological target: T1, recombinant human ErbB2-Fc chimera (human, UniProt P04626 23-652); assay: MST; normal model, optimised conditions: MPer lysate with the eGFP fusion kept constant around 33 nM, Fc protein titrated 1:1 in PBS with 0.05% P20 from 1 µM to 0.05 nM; 80% MST power, MST-on 30 s; blue LED; settings: one partner purified
T1 construct: ErbB2 receptor tyrosine kinase, human; extracellular domains, lacks the TM and CT part; Described as a disulfide-linked homodimeric protein; In the reverse model it was labelled on its 6His-tag with RED-tris-NTA dye (not covalent); also called recombinant ErbB2

[6] = biological target: T1, recombinant human ErbB2-Fc chimera; assay: MST; reverse model: ErbB2-Fc labelled on its 6His-tag with RED-tris-NTA dye kept constant, MPer lysate containing the eGFP fusion titrated 3:1 in PBS with 0.05% P20 (up to about 400 nM); red LED, 80% MST power; settings: one partner purified

- Kd [1]: > 20000 nM
- Kd [2]: > 20000 nM
- Kd [3]: 131 nM
- Kd [4]: > 20000 nM
Molecule: recombinant human ErbB2-Fc chimera (from UniProt P04626 23-652) (Fc fusion)

- Kd [3]: > 20000 nM
Molecule: PD-1-Fc (non-relevant protein containing the same Fc as recombinant ErbB2) (from UniProt Q15116 25-170) (Fc fusion)

- Kd [5]: 79 ± 18 nM
- Kd [6]: 65 ± 14 nM
B1: eGFP-MUC4_(EGF3+1+2) (truncated mutant encompassing only the EGF domains of MUC4) (domain or fragment, human, UniProt Q99102 5118-5360, looked up)
chain: QNQSCPVNYCYNQGHCYISQTLGCQPMCTCPPAFTDSRCFLAGNNFSPTVNLELPLRVIQLLLSEEENASMAEVNASVAYRLGTLDMRAFLRNSQVERIDSAAPASGSPIQHWMVISEFQYRPRGPVIDFLNNQLLAAVVEAFLYHVPRRSEEPRNDVVFQPISGEDVRDVTALNVSTLKAYFRCDGYKGYDLVYSPQSGFTCVSPCSRGYCDHGGQCQHLPSGPRCSCVSFSIYTAWGEHCE
notes: MUC4, UniProt Q99102; said to hold the three EGF-like domains EGF3, EGF1 and EGF2 with what lies between; source: CHO-K1, transfected (peGFP-C1), selected, in cell lysate, used without further purification
